Reference: publication PMC7986998

Molecular target: human ACE2-Fc (human) (UniProt Q9BYF1)
Assay: ELISA

Sequence of human ACE2-Fc (human) (Q9BYF1 18-740): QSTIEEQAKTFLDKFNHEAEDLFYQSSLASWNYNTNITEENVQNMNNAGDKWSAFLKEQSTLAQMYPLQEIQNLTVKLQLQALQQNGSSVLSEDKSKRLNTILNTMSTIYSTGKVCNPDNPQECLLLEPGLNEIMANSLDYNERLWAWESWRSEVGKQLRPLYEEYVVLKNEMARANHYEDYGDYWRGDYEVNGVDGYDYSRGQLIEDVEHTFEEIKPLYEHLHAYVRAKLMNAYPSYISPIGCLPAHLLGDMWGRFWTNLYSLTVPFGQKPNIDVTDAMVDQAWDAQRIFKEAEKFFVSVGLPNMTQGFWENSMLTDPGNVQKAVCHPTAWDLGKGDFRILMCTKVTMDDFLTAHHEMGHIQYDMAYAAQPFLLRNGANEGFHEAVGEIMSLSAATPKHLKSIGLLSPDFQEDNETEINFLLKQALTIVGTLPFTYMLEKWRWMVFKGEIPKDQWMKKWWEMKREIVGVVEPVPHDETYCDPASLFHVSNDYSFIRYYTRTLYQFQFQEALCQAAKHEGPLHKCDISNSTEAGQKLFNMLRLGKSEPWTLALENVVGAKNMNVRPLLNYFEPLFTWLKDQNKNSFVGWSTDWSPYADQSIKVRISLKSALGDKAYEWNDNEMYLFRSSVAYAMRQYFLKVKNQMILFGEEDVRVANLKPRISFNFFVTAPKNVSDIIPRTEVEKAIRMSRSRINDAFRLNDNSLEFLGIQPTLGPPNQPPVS

SARS-CoV S 2P ectodomain trimer (from UniProt P59594 14-1195) (domain or fragment)
EC50: 4.11 nM
